Assay results taken from patent US6872703B2, “Insulin receptor-related receptor binding protein” (Ajinomoto Co., Inc., priority 2000, dated 2005).

T1: insulin receptor-related receptor (IRR), IRR-Fc fusion protein (extracellular region of mouse IRR) (Mus musculus, UniProt Q9WTL4)
T1 construct: with an extracellular region of mouse IRR (1-920th residues); made in house; host or cells: CHO cells
T1 sequence (Q9WTL4 27-920): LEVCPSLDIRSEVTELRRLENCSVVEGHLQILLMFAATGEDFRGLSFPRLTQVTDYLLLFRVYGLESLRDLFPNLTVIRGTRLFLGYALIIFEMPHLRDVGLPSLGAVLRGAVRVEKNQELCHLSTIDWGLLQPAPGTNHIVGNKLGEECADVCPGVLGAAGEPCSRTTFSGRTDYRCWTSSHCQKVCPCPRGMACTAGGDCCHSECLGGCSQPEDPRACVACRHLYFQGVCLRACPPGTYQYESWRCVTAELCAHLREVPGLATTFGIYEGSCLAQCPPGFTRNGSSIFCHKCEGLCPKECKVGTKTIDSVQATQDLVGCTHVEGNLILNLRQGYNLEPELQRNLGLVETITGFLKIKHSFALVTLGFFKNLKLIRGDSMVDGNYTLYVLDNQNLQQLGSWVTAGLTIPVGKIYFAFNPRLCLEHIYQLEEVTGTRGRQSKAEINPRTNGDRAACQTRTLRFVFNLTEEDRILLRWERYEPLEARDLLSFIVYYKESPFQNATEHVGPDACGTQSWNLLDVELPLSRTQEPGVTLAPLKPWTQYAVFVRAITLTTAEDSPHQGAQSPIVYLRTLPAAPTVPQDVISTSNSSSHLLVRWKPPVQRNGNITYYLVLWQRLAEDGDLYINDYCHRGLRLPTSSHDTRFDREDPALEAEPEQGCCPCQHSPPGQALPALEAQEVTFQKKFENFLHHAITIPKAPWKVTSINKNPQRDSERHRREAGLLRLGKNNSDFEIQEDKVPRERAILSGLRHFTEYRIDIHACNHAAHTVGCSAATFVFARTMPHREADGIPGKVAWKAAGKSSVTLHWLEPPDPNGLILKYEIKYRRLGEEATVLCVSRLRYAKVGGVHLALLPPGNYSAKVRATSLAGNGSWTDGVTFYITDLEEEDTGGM

B1: Peak 1: Re-purified IRR ligand fraction from rat C6 cell supernatant; proteins of molecular weights 6250 and 6321, SEQ ID NOS: 5 and 6 (epithelin/granulin) (protein, listed as Mus musculus)
chain 1: DIGCDQHTSCPVGQTCCPSLKGSWACCQLPHAVCCEDRQHCCPAGYTCNVKARTCEKN
chain 2: DIGCDQHTSCPVGQTCCPSLKGSWACCQLPHAVCCEDTQHCCPAGYTCNVKARTCEKDA

Legend:
IRR = IRR (Homo sapiens, UniProt P14616); conditions: literature report; cited from earlier work
[1] = target: T1, insulin receptor-related receptor (IRR), IRR-Fc fusion protein (extracellular region of mouse IRR); assay: IRR binding activity by surface plasmon resonance (BIACORE 2000), IRR-Fc binding value minus IR-Fc binding value; conditions: about 1/10 amount of each re-purified specimen (about 10 μg) lyophilized and dissolved in 200 μl of buffer; IR-Fc binding value subtracted from IRR-Fc binding value
Text: Determination of active fractions in the purification of the IRR ligand from a supernatant of cells expressing the IRR ligand including the rat C6 glioma cells or identification of granulins/epithelins or mutants thereof as IRR ligands can be carried out by measuring activity for binding to IRR in a sample. The binding activity to IRR of a sample specimen can be measured by using a surface plasmon resonance (SPR) measuring apparatus, for example, BIACORE (produced by Biacore). Specifically, for example, the extracellular domain of IRR is prepared as a soluble protein and immobilized on a surface of a BIACORE sensor chip. A sample specimen is sent onto the surface of the sensor chip via a micro flow system at a constant flow rate. If a molecule binding to IRR (IRR ligand) is contained in the sample specimen, the mass of the surface sensor chip is increased due to binding between IRR and IRR ligand molecules, and a shift of the SPR signal in proportion to the binding quantity can be detected as a change in the resonance unit (RU). […] When, for example, an insulin receptor (IR) protein is used as a protein other than IRR, IRR-binding activity can be measured more precisely. […]

Sequence of IRR (P14616 27-742 limits assumed, species assumed): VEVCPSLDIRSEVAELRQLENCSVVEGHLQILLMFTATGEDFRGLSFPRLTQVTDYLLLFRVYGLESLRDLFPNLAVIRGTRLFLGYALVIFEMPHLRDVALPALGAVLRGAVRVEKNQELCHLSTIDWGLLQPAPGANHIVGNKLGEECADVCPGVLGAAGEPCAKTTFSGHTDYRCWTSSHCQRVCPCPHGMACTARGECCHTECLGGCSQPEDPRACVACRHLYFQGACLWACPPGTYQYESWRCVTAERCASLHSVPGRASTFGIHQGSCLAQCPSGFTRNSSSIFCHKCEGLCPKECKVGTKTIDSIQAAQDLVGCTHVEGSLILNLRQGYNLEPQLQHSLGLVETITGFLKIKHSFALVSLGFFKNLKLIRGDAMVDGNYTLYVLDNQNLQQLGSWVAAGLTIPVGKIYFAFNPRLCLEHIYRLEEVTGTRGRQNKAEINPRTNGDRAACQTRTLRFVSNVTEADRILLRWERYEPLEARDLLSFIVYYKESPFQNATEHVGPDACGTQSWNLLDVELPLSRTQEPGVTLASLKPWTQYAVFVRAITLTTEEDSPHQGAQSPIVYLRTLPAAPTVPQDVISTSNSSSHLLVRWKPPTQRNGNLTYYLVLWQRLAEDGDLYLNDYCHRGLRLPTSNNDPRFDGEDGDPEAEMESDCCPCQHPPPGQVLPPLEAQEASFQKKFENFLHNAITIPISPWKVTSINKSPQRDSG
Sequence of IRR (P14616 747-1297 limits assumed, species assumed): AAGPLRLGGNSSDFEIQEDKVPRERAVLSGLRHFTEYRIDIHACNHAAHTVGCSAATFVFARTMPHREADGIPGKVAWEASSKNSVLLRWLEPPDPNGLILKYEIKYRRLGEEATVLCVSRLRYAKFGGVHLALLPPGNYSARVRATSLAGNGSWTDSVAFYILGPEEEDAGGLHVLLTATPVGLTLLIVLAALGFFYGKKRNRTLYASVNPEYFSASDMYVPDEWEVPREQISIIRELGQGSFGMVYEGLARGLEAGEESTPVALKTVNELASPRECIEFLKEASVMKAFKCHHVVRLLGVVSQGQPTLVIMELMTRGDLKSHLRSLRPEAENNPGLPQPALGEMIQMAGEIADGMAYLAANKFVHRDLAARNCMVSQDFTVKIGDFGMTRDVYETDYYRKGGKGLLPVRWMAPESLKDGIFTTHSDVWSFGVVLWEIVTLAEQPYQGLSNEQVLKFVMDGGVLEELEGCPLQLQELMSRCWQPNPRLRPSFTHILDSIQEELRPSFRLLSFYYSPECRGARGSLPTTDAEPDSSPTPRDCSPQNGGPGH

Molecule	binding to IRR (IRR)	binding activity (IRR-specific binding value, SPR resonance units) [1] [RU]
insulin	cannot bind to IRR	
insulin-like growth factor (IGF)-1 [IGF-1]	cannot bind to IRR	
Peak 2: Re-purified IRR ligand fraction from rat C6 cell supernatant; protein of molecular weight 6135, SEQ ID NO: 4 (epithelin/granulin) (IGCDQHTSCPVGQTCCPSLKGSWACCQLPHAVCCEDRQHCCPAGYTCNVKARTCEKQ; listed as Mus musculus)		21
B1		13
